Patent US20050282743A1, “Molecular interactions in cells” (Arbor Vita Corporation, priority 2001, published 2005)
Several values for one entry are separate records, joined by “and”; a condition that tells them apart may be missing. Equal values may be shown once.

Key:
[1] = biological target: T1, GST-TIP-1 (Example 3) (human), O14907; test: G assay titration, PDZ 0.3 ug/ml
T1 chain: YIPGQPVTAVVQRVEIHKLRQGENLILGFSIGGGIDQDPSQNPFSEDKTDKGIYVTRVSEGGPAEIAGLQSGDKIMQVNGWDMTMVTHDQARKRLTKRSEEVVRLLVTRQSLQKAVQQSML

[2] = biological target: GST-DLG1 PDZ domains 1, 2 (Homo sapiens), Q12959; test: G assay titration, PDZ 0.3 ug/ml
[3] = biological target: GST-KIAA1634 PDZ domain 4 (Homo sapiens (Human)), Q5TCQ9; test: G' assay; note: key of the grades not given here
[4] = biological target: T2, GST-PTPL1 PDZ domain 4 (Homo sapiens (Human)), Q12923; test: G' assay; note: key of the grades not given here
T2 chain: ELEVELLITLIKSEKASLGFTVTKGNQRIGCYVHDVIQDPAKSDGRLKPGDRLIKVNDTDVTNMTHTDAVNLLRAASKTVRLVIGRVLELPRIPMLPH

[5] = biological target: T3, GST-FLJ 10324 PDZ domain 1 [GST: P08515]; test: G' assay; note: key of the grades not given here
T3 chain: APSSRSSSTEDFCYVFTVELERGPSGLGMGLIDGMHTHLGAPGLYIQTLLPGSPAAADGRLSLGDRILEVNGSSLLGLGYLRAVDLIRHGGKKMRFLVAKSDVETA

[6] = biological target: T4, GST-AIPC PDZ domain 1 (Homo sapiens (Human)), O15018; test: G' assay; note: key of the grades not given here
T4 chain: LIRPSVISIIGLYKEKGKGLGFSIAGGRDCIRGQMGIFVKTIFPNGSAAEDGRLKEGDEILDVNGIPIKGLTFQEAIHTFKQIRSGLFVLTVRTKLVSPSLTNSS

[7] = biological target: T5, GST-DLG1 PDZ domain 2 (Homo sapiens), Q12959; test: G' assay; note: key of the grades not given here
T5 chain: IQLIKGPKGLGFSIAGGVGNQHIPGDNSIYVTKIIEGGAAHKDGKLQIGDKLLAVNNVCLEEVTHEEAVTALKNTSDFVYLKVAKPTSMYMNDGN

[8] = biological target: T6, GST-PTPL1 PDZ domain 2 (Homo sapiens (Human)), Q12923; test: G' assay; note: key of the grades not given here
T6 chain: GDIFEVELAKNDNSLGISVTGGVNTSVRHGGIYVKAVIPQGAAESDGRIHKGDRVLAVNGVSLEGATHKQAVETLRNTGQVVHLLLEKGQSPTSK

[9] = biological target: T7, GST-NeDLG PDZ domains 1, 2, Q92796; test: G' assay; note: key of the grades not given here
T7 chain: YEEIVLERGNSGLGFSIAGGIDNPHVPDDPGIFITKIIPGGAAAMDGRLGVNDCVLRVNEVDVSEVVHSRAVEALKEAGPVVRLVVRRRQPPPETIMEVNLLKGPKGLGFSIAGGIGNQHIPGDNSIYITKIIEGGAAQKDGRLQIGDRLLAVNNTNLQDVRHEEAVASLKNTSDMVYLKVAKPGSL

[10] = biological target: GST-DLG1 PDZ domains 1, 2 (Homo sapiens), Q12959; test: G' assay; note: key of the grades not given here
[11] = biological target: GST-KIAA1634 PDZ domain 1 (Homo sapiens (Human)), Q5TCQ9; test: G' assay; note: key of the grades not given here
[12] = biological target: T8, GST-KIAA1634 PDZ domain 2 (Homo sapiens (Human)), Q5TCQ9; test: G' assay; note: key of the grades not given here
T8 chain: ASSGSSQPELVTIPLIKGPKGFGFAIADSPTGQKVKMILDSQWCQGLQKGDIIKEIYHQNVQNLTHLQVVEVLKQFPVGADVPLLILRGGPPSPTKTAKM

[13] = biological target: T9, GST-DLG2 PDZ domain 2 (Homo sapiens (Human)), Q15700; test: G' assay; note: key of the grades not given here
T9 chain: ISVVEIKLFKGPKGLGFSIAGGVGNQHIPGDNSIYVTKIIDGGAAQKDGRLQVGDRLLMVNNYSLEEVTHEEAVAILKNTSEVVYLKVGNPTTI

[14] = biological target: GST-BAI-1 Associated Protein PDZ domain 5 (Homo sapiens (Human)), Q96QZ7; test: G' assay; note: key of the grades not given here
[15] = biological target: GST-PSD95 PDZ domains 1, 2, 3 (Homo sapiens), P78352; test: G' assay; note: key of the grades not given here
[16] = biological target: T10, GST-Outer Membrane PDZ domain 1 (Homo sapiens (Human)), P57105; test: G' assay; note: key of the grades not given here
T10 chain: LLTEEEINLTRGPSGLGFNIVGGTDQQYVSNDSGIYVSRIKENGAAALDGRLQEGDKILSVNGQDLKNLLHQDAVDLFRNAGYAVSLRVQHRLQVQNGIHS

[17] = biological target: GST-BAI-1 Associated Protein PDZ domain 2 (Mus musculus (Mouse)), Q6RHR9; test: G' assay; note: key of the grades not given here
[18] = biological target: GST-BAI-1 Associated Protein PDZ domain 6 (Homo sapiens (Human)), Q96QZ7; test: G' assay; note: key of the grades not given here
[19] = biological target: T11, GST-novel PDZ gene PDZ domain 2 (Homo sapiens (Human)), Q9H5P4; test: G' assay; note: key of the grades not given here
T11 chain: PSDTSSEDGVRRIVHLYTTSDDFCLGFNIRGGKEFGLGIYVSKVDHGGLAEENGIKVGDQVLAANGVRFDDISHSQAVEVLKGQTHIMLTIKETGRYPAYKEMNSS

[20] = biological target: T12, GST-Syntrophin 1 alpha PDZ domain 1 (Homo sapiens (Human)), Q13424; test: G' assay; note: key of the grades not given here
T12 chain: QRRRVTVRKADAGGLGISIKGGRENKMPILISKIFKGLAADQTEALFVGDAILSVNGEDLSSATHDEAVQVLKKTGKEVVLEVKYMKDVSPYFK

[21] = biological target: T13, GST-TIP1 PDZ domain 1 (Table 9 insert) (Homo sapiens (Human)), O14907; test: G' assay; note: key of the grades not given here
T13 chain: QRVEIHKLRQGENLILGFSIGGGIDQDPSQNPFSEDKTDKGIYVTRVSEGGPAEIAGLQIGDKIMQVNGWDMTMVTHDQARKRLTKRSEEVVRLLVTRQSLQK

[22] = biological target: T14, GST-MUPP1 PDZ domain 13 (Homo sapiens (Human)), O75970; test: G' assay; note: key of the grades not given here
T14 chain: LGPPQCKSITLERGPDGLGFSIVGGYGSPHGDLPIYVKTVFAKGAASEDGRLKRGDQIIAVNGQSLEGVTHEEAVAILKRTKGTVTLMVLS

[23] = biological target: T15, GST-KIAA0807(S) PDZ domain 1 (Homo sapiens (Human)), Q6P0Q8; test: G' assay; note: key of the grades not given here
T15 chain: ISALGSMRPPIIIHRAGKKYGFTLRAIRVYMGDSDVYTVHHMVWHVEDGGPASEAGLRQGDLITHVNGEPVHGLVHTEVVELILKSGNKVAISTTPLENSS

[24] = biological target: T16, GST-KIAA0380 PDZ domain 1 (Homo sapiens (Human)), O15085; test: G' assay; note: key of the grades not given here
T16 chain: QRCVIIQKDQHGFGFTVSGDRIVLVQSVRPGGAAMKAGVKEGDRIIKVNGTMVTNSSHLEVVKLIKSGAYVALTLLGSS

[25] = biological target: T17, GST-PDZK1 PDZ domains 2, 3, 4, Q5T2W1; test: G' assay; note: key of the grades not given here
T17 chain: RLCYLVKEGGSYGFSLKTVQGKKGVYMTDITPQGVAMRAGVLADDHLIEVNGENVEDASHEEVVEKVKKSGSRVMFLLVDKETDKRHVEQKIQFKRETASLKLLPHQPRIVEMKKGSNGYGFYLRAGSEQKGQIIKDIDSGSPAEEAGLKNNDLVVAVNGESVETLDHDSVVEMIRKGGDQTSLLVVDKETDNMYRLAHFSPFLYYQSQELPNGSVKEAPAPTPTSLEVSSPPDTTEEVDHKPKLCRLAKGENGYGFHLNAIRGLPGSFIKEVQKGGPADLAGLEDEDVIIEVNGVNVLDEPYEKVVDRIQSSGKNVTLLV

[26] = biological target: GST-KIAA1634 PDZ domain 5 (Homo sapiens (Human)), Q5TCQ9; test: G' assay; note: key of the grades not given here
[27] = biological target: T18, GST-MINT1 PDZ domain 2 (Mus musculus (Mouse)), B2RUJ5; test: G' assay; note: key of the grades not given here
T18 chain: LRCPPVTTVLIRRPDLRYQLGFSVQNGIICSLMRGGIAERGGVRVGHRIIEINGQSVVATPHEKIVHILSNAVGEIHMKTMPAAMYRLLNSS

[28] = biological target: GST-KIAA807 [GST: P08515]; test: G' assay; note: key of the grades not given here
[29] = biological target: T19, GST-Shank 1 PDZ domain 1 (Homo sapiens (Human)), Q9UPX8; test: G' assay; note: key of the grades not given here
T19 chain: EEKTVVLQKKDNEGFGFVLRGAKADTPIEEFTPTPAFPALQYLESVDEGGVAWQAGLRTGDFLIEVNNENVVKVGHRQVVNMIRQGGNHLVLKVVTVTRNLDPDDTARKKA

[30] = biological target: T20, GST-GRIP 1 PDZ domain 7 (Homo sapiens (Human)), Q9Y3R0; test: G' assay; note: key of the grades not given here
T20 chain: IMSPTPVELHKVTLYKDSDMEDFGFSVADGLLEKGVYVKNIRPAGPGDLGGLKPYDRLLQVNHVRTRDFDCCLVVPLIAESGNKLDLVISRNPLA

[31] = biological target: T21, GST-KIAA1719 PDZ domain 6 (Homo sapiens (Human)), Q9C0E4; test: G' assay; note: key of the grades not given here
T21 chain: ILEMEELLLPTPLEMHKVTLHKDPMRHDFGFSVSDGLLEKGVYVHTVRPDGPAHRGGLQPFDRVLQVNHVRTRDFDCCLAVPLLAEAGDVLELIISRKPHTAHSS

[32] = biological target: T22, GST-KIAA0382 PDZ domain 1 (Canis lupus familiaris (Dog) (Canis familiaris)), A0A8I3; test: G' assay; note: key of the grades not given here
T22 chain: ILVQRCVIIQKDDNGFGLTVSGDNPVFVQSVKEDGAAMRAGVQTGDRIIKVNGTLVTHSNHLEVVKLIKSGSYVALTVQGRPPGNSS

[33] = biological target: T23, GST-KIAA1526 PDZ domain 1 (Homo sapiens (Human)), Q9P202; test: G' assay; note: key of the grades not given here
T23 chain: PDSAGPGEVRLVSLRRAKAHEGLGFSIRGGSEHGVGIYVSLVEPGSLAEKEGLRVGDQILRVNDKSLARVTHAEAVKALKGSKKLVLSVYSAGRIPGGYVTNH

[34] = biological target: T24, GST-MINT1 PDZ domains 1, 2, Q02410; test: G' assay; note: key of the grades not given here
T24 chain: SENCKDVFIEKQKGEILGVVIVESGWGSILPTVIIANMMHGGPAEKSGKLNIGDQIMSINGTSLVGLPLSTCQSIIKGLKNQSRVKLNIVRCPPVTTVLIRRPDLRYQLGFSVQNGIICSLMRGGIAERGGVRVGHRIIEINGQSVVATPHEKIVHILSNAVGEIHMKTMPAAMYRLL

Chain of GST-PSD95 PDZ domains 1, 2, 3 (Homo sapiens), P78352 (P78352 62-395): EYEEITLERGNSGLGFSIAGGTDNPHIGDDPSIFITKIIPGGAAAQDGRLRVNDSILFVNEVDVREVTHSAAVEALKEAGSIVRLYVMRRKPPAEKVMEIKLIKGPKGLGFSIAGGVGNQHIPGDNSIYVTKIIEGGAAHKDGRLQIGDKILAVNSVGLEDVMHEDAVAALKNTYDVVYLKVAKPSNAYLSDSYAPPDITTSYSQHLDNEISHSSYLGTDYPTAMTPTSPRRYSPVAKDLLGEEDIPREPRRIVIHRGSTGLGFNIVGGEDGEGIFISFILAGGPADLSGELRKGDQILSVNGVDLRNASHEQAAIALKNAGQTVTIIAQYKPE
Chain of GST-KIAA1634 PDZ domain 1 (Homo sapiens (Human)), Q5TCQ9 (Q5TCQ9 401-502): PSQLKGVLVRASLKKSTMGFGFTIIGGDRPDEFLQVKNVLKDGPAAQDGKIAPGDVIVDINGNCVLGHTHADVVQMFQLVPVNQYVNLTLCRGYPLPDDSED
Chain of GST-BAI-1 Associated Protein PDZ domain 5 (Homo sapiens (Human)), Q96QZ7 (Q96QZ7 988-1099): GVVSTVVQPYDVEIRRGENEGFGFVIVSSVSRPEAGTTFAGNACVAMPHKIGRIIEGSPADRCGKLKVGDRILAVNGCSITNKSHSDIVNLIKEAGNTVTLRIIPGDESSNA
Chain of GST-BAI-1 Associated Protein PDZ domain 6 (Homo sapiens (Human)), Q96QZ7 (Q96QZ7 1143-1233): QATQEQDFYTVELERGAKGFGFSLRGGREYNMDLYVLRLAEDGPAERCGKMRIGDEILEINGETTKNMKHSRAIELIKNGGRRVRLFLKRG
Chain of GST-KIAA1634 PDZ domain 4 (Homo sapiens (Human)), Q5TCQ9 (Q5TCQ9 844-945): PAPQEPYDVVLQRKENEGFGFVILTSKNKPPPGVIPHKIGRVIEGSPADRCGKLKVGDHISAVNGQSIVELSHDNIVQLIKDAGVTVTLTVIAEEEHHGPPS
Chain of GST-BAI-1 Associated Protein PDZ domain 2 (Mus musculus (Mouse)), Q6RHR9 (Q6RHR9 455-558): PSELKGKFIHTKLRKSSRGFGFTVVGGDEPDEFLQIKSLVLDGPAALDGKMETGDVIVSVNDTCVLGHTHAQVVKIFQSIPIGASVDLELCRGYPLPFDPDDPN
Chain of GST-KIAA1634 PDZ domain 5 (Homo sapiens (Human)), Q5TCQ9 (Q5TCQ9 other isoform, or with tags, fused parts or gaps): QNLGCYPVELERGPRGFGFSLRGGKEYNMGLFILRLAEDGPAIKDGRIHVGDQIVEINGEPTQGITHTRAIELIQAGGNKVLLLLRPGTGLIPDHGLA
Chain of GST-KIAA807 [GST: P08515] (P08515 whole entry, the tested form may be a part): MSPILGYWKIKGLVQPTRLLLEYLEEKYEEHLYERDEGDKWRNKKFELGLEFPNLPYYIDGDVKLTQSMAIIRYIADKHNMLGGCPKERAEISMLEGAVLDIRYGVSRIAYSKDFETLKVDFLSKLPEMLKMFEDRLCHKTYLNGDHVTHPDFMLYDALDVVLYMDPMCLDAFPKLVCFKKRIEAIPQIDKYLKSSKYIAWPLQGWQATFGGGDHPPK

B1: CD95 (peptide)
peptide: KDITSDSENSNFRNEIQSLV
modifications: not checked
Kd [1]: 20 µM and 25 µM
maximum OD (450 nm) [1]: 2.6 OD and 3.5 OD
Kd [2]: 15 µM and 20 µM
maximum OD (450 nm) [2]: 2.6 OD and 2.1 OD
Classification [3]: 1 A450 class
Classification [4]: 1 A450 class
Classification [5]: 1 A450 class
Classification [6]: 1 A450 class
Classification [7]: 1 A450 class
Classification [8]: 3 A450 class
Classification [9]: 1 A450 class
Classification [10]: 2 A450 class
Classification [11]: 1 A450 class
Classification [12]: 1 A450 class
Classification [13]: 1 A450 class
Classification [14]: 3 A450 class
Classification [15]: 1 A450 class
Classification [16]: 1 A450 class

B2: IL-8RA (peptide)
peptide: ARHRVTSYTSSSVNVSSNL
modifications: not checked
Classification [17]: 1 A450 class
Classification [18]: 1 A450 class
Classification [19]: 1 A450 class
Classification [20]: 1 A450 class
Classification [21]: 1 A450 class
Classification [22]: 1 A450 class
Classification [11]: 1 A450 class
Classification [23]: 1 A450 class
Classification [24]: 1 A450 class
Classification [25]: 1 A450 class
Classification [15]: 1 A450 class
Classification [26]: 1 A450 class

B3: SSTR2 (somatostatin recepor 2) (peptide)
peptide: LNETTETQRTLLNGDLQTSI
modifications: not checked
Classification [27]: 1 A450 class
Classification [28]: 2 A450 class
Classification [29]: 1 A450 class
Classification [30]: 1 A450 class
Classification [31]: 1 A450 class
Classification [32]: 1 A450 class
Classification [33]: 1 A450 class
Classification [23]: 2 A450 class
Classification [34]: 1 A450 class
